Experiments:
[1] = target: integrin αvβ3 on cells (human, UniProt P06756 31-1048; P05106 27-788); test: cell-based or functional assay
[2] = target: integrin αvβ5 on cells (human) (UniProt P06756); test: cell-based or functional assay
[3] = target: integrin receptors on the surface of MDA-MB-435 cells; test: inhibition of binding of MDA-MB-435 cells to immobilized CN (0.1 µg/well); competitor: immobilized CN
[4] = target: T1, platelet membrane glycoprotein (GP)IIb/IIIa on human platelets (human, UniProt P08514 32-1039; P05106 27-788)
[5] = target: integrin receptors on the surface of MDA-MB-435 cells; test: cell-based or functional assay
[6] = target: binding sites on human melanoma M24met cells; test: binding of CN to human melanoma M24met cells, high affinity site
[7] = target: binding sites on human melanoma M24met cells; test: binding of CN to human melanoma M24met cells, lower affinity site
[8] = target: T1, platelet membrane glycoprotein …; test: Scatchard analysis of CN binding to unactivated human platelets

T1 sequence (P08514 32-1039, chain 1 of 2): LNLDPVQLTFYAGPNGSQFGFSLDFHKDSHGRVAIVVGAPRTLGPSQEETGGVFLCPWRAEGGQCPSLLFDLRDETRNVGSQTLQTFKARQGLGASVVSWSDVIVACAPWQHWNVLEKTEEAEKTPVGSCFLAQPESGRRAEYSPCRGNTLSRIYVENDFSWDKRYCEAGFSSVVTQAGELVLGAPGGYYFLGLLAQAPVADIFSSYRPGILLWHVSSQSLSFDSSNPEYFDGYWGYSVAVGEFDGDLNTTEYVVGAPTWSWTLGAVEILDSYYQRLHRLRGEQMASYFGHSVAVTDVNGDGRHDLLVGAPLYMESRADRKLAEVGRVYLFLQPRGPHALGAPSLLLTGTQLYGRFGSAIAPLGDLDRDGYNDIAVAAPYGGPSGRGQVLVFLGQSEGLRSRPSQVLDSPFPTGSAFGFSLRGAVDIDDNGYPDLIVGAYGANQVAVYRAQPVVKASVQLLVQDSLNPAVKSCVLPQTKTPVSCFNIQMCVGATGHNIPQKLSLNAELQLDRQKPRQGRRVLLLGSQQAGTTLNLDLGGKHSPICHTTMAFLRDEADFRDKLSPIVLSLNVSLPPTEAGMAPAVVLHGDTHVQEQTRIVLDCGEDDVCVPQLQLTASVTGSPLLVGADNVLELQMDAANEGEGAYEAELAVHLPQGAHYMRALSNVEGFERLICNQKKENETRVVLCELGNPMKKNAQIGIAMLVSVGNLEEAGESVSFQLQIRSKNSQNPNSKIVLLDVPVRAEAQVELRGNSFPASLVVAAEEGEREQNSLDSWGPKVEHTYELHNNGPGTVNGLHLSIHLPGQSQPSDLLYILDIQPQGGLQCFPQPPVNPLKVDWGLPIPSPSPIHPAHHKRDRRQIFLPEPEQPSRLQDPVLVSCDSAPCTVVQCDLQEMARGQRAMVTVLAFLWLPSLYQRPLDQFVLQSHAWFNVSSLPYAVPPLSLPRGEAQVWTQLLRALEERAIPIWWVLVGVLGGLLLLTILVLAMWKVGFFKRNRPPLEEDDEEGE
T1 sequence (P05106 27-788, chain 2 of 2): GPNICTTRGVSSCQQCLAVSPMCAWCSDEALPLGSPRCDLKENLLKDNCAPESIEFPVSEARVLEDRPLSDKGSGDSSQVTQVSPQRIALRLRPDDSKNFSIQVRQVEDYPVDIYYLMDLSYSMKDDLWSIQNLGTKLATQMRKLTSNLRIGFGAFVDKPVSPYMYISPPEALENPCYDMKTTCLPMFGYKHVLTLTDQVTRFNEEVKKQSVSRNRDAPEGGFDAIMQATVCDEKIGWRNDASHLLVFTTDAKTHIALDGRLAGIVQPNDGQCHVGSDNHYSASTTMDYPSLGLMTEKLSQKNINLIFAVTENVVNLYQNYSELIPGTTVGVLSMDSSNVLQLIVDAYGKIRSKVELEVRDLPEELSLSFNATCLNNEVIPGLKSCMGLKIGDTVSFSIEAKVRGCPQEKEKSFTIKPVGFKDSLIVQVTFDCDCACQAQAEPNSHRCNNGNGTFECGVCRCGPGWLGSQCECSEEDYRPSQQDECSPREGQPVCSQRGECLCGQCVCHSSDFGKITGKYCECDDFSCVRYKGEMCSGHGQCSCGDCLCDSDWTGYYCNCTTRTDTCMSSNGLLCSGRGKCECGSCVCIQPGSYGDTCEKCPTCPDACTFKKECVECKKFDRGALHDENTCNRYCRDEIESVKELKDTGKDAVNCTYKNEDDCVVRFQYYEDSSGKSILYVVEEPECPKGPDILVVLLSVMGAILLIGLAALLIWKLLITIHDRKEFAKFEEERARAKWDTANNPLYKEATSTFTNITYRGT
Sequence of integrin αvβ5 on cells (human) (P06756 31-1048, chain 1 of 2): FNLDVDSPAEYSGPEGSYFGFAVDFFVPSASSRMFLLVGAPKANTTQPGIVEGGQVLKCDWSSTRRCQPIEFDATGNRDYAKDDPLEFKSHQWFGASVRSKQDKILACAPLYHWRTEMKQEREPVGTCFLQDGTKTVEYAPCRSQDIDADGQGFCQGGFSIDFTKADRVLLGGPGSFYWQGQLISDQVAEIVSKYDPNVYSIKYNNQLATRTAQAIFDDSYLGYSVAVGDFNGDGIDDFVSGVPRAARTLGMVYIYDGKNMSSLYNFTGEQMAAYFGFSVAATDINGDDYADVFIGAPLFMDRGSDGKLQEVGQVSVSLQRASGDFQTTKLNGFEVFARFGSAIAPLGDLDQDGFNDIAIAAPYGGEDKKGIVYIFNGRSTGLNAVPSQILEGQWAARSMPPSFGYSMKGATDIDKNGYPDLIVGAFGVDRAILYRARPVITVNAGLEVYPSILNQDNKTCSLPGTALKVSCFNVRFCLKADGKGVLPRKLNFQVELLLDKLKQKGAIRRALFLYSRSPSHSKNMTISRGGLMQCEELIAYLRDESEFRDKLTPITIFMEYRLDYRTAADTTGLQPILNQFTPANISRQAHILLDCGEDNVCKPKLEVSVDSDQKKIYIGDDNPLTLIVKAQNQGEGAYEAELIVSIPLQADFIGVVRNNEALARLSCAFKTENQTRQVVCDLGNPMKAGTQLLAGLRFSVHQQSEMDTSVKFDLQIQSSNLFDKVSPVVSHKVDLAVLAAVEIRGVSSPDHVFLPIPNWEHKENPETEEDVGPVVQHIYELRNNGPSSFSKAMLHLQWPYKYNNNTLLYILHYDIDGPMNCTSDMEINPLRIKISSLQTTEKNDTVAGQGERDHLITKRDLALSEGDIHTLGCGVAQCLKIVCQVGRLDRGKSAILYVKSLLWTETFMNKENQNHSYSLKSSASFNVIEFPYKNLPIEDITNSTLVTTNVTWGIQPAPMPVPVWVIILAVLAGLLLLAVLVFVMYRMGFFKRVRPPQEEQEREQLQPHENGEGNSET
Sequence of integrin αvβ5 on cells (human) (P18084 24-799, chain 2 of 2, further chain): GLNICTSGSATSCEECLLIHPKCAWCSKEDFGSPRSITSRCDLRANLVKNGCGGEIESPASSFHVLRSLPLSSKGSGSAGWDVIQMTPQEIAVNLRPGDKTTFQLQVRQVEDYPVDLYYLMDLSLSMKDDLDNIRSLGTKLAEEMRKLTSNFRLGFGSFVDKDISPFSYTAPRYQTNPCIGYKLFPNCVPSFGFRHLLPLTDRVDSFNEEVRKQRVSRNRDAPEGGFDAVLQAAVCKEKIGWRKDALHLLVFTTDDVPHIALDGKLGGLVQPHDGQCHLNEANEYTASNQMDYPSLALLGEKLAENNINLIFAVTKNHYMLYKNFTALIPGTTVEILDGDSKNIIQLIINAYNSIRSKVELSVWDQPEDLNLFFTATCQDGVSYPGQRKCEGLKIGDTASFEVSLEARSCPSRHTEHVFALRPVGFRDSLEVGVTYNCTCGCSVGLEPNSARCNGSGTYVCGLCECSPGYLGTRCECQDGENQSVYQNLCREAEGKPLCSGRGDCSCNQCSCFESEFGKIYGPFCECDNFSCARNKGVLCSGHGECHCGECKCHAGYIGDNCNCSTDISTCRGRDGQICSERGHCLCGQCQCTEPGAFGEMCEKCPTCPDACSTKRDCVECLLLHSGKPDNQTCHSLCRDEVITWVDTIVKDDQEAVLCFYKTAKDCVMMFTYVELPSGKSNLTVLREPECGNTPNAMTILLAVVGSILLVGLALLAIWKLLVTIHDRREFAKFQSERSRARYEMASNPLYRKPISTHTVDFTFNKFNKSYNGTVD
Sequence of integrin αvβ3 on cells (P06756 31-1048, chain 1 of 2): as the sequence (P06756 31-1048, chain 1 of 2) above
Sequence of integrin αvβ3 on cells (P05106 27-788, chain 2 of 2): as the sequence (P05106 27-788, chain 2 of 2) above

7E3 murine monoclonal antibody
maximum inhibition of adhesion of T24 cells to immobilized vitronectin [1]: < 40%

P1F6 monoclonal antibody
inhibition of adhesion of T24-β3 neg. cells to immobilized vitronectin [2]: 80% | inhibition of adhesion of T24 cells to immobilized vitronectin [2]: < 40%

B1: RGD peptide GRGDSP (peptide)
peptide: GRGDSP
IC50 [3]: 400000 nM

B2: contortrostatin (ligand)
chain: DAPANPCCDAATCKLTTGSQCADGLCCDQCKFMKEGTVCRRARGDDLDDYCNGISAGCPRNPFHA
notes: also called CN; homodimeric disintegrin
IC50 [4]: 25 nM | IC50 for inhibition of adhesion of MDA-MB-435 cells to immobilized fibronectin [5]: 18 nM | IC50 for inhibition of adhesion of MDA-MB-435 cells to immobilized vitronectin [1]: 1.5 nM | Kd [6]: 1.1 nM | sites per cell (sites per cell) [6]: 96000 | Kd [7]: 41 nM | sites per cell (sites per cell) [7]: 480000 | Kd [8]: 37 nM
